In the supplement of paper PMC9876800:

Each substance was assayed on peptide library, one residue held at a place counted from the S/T acceptor (assay: relative phosphorylation of the sub-library (ratio to the mean residue at this position); human; higher = residue favoured). Details: W fixed; at +4.
How it was run: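 Relative sub-library phosphorylation is the ratio of each sub-library's signal to the mean residue at that position. The signal came from phosphorimaging of spots on streptavidin membranes, quantified by densitometry, after purified recombinant kinases reacted with biotinylated degenerate peptide sub-libraries in 384-well plates. Reactions held 50 μM peptide and 50 μM ATP spiked with γ-32P-ATP for 90 min under kinase-specific conditions.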

MAP3K10, construct: aa1-449, sequence (Q02779 1-449, looked up): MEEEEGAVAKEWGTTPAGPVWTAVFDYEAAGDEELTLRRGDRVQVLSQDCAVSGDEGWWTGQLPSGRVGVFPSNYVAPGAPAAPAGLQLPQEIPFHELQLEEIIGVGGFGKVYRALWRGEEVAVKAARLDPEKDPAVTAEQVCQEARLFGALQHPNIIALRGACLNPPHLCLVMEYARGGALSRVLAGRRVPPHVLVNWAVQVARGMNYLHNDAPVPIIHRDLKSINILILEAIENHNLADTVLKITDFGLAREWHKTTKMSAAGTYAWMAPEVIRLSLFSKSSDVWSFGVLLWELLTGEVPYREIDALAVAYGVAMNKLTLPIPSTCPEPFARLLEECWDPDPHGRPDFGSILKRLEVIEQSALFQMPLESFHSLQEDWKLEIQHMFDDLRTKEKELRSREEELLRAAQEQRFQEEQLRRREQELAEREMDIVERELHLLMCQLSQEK
CHEK2, construct: Full length, sequence (O96017 whole entry, looked up): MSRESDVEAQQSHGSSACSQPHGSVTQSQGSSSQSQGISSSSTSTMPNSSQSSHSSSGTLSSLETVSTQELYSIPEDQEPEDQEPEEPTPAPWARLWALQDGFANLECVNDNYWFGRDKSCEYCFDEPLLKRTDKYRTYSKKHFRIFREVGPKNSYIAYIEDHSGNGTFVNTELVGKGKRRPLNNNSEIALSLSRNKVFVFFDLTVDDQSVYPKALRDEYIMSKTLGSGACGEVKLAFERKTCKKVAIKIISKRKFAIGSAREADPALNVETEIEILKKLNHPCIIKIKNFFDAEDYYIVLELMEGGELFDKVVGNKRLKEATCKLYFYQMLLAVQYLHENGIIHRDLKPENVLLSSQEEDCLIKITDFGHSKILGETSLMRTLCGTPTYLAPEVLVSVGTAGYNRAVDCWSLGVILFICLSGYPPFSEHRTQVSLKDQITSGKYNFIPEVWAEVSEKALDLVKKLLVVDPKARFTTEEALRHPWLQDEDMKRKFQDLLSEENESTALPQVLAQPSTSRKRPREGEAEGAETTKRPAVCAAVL
MAP4K3, construct: aa1-380, sequence (Q8IVH8 1-380, looked up): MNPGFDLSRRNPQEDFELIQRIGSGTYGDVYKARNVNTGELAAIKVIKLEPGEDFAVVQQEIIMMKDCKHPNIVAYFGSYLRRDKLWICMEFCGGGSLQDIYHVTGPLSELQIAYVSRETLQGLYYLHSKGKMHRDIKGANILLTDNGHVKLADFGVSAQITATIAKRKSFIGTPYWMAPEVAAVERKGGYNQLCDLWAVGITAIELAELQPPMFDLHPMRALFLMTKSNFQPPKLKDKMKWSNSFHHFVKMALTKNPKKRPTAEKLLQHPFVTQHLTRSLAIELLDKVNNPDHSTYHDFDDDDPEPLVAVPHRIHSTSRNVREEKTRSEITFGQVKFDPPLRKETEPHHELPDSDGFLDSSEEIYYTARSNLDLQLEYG
CAMK1, construct: Full length, sequence (Q14012 whole entry, looked up): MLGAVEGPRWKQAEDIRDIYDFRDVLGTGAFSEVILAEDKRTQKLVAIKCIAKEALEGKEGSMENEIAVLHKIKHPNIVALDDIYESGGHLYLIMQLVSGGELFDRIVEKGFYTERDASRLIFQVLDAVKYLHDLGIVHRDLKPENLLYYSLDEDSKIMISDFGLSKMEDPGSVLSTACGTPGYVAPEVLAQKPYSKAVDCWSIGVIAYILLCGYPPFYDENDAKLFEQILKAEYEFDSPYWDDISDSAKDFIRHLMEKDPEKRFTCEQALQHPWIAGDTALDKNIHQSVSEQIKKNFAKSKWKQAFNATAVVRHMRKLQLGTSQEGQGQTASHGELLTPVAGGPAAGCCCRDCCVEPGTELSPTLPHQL
MOK, construct: aa1-343, sequence (Q9UQ07 1-343, looked up): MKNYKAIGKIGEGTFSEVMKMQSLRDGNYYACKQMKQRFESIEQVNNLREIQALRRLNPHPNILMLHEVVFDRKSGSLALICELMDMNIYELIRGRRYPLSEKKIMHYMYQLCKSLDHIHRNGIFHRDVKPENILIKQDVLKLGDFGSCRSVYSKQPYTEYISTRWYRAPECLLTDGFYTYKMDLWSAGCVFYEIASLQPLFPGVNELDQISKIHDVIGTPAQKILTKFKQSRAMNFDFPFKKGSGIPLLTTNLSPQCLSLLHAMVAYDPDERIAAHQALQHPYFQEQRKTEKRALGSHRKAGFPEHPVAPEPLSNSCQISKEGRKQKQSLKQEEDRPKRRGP
TTBK1, construct: Full length, sequence (Q5TCY1 whole entry, looked up): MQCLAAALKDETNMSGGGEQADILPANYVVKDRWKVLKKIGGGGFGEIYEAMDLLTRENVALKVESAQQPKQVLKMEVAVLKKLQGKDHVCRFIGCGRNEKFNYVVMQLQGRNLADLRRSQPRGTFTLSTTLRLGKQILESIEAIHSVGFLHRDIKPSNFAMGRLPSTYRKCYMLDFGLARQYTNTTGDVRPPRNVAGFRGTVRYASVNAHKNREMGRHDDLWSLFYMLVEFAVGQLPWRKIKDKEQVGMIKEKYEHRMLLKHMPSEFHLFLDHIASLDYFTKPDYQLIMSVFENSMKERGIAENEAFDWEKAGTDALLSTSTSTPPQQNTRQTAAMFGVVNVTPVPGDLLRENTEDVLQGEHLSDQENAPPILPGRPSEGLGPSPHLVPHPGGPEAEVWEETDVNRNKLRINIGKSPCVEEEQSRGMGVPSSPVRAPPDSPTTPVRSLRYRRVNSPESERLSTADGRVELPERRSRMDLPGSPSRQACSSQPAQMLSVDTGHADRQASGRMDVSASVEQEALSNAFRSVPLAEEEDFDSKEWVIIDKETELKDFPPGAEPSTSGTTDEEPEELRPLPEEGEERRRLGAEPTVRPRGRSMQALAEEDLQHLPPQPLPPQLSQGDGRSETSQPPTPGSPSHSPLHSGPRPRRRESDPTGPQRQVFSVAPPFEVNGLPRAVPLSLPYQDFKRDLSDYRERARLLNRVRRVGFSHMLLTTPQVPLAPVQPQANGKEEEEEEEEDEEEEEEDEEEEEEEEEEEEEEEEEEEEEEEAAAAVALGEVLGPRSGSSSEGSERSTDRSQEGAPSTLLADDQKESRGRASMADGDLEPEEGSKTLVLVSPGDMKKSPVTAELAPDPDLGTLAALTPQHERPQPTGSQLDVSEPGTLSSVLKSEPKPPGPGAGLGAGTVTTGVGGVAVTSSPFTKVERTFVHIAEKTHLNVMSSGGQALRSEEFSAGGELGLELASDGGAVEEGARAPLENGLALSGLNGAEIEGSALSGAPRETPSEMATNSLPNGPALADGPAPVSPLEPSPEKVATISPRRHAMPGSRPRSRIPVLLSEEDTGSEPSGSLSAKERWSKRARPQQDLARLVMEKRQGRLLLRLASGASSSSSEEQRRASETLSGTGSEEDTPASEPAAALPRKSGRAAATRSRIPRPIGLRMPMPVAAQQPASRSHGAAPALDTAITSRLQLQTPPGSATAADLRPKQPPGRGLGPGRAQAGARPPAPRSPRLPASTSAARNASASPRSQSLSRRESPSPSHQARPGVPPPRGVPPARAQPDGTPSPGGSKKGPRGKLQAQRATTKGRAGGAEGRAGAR
EIF2AK1, construct: Full length, sequence (Q9BQI3 whole entry, looked up): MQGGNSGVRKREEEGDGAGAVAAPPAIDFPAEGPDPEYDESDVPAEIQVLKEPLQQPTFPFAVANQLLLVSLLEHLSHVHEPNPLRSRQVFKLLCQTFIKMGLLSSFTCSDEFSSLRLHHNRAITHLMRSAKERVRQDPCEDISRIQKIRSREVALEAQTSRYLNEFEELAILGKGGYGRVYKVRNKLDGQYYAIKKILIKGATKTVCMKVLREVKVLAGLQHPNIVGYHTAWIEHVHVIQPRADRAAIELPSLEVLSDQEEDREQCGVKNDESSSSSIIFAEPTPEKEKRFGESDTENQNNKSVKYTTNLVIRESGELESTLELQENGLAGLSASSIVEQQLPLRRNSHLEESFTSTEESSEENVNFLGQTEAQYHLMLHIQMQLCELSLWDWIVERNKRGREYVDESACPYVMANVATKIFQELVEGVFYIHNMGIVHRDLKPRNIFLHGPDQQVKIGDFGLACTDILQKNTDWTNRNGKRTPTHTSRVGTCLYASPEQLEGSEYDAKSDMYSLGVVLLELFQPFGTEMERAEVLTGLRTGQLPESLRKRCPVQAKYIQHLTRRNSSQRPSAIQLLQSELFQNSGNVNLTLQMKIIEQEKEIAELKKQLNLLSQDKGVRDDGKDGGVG

Substance | relative phosphorylation
PKN3, construct: Full length (from UniProt Q6P5Z2) | 0.883

Same assay, conditions: W fixed; at -1

Substance | relative phosphorylation
MOK, construct: aa1-343 (from UniProt Q9UQ07) | 0.976
TTBK1, construct: Full length (from UniProt Q5TCY1) | 1.11
CHEK2, construct: Full length (from UniProt O96017) | 0.587
MAP4K3, construct: aa1-380 (from UniProt Q8IVH8) | 0.668
CAMK1, construct: Full length (from UniProt Q14012) | 0.45
MAP3K10, construct: aa1-449 (from UniProt Q02779) | 1.07
EIF2AK1, construct: Full length (from UniProt Q9BQI3) | 0.731
PKN3, construct: Full length (from UniProt Q6P5Z2) | 0.524

Same assay, conditions: W fixed; at -2

Substance | relative phosphorylation
MOK, construct: aa1-343 (from UniProt Q9UQ07) | 0.331
TTBK1, construct: Full length (from UniProt Q5TCY1) | 0.808
CHEK2, construct: Full length (from UniProt O96017) | 0.639
MAP4K3, construct: aa1-380 (from UniProt Q8IVH8) | 1.3
CAMK1, construct: Full length (from UniProt Q14012) | 0.842
MAP3K10, construct: aa1-449 (from UniProt Q02779) | 1.5
EIF2AK1, construct: Full length (from UniProt Q9BQI3) | 0.787
PKN3, construct: Full length (from UniProt Q6P5Z2) | 0.782

Same assay, conditions: W fixed; at -3

Substance | relative phosphorylation
MOK, construct: aa1-343 (from UniProt Q9UQ07) | 0.316
TTBK1, construct: Full length (from UniProt Q5TCY1) | 1.16
CHEK2, construct: Full length (from UniProt O96017) | 0.284
MAP4K3, construct: aa1-380 (from UniProt Q8IVH8) | 0.935
CAMK1, construct: Full length (from UniProt Q14012) | 0.325
MAP3K10, construct: aa1-449 (from UniProt Q02779) | 0.997
EIF2AK1, construct: Full length (from UniProt Q9BQI3) | 1.23
PKN3, construct: Full length (from UniProt Q6P5Z2) | 0.517

Same assay, conditions: W fixed; at -4

Substance | relative phosphorylation
MOK, construct: aa1-343 (from UniProt Q9UQ07) | 0.811
TTBK1, construct: Full length (from UniProt Q5TCY1) | 1.54
CHEK2, construct: Full length (from UniProt O96017) | 0.807
MAP4K3, construct: aa1-380 (from UniProt Q8IVH8) | 1.16
CAMK1, construct: Full length (from UniProt Q14012) | 0.633
MAP3K10, construct: aa1-449 (from UniProt Q02779) | 1.09
EIF2AK1, construct: Full length (from UniProt Q9BQI3) | 1.59
PKN3, construct: Full length (from UniProt Q6P5Z2) | 0.85

Same assay, conditions: W fixed; at -5

Substance | relative phosphorylation
MOK, construct: aa1-343 (from UniProt Q9UQ07) | 1.02
TTBK1, construct: Full length (from UniProt Q5TCY1) | 1.35
CHEK2, construct: Full length (from UniProt O96017) | 0.914
MAP4K3, construct: aa1-380 (from UniProt Q8IVH8) | 1.07
CAMK1, construct: Full length (from UniProt Q14012) | 0.924
MAP3K10, construct: aa1-449 (from UniProt Q02779) | 1.24
EIF2AK1, construct: Full length (from UniProt Q9BQI3) | 1.44
PKN3, construct: Full length (from UniProt Q6P5Z2) | 0.828

Same assay, conditions: Y fixed; at +1

Substance | relative phosphorylation
MOK, construct: aa1-343 (from UniProt Q9UQ07) | 0.21
TTBK1, construct: Full length (from UniProt Q5TCY1) | 1.31
